This is an account of results in patent US8323941B2, “Histone demethylation mediated by the nuclear amine oxidase homolog LSD1” (President and Fellows of Harvard College, priority 2004, dated 2012).

The target in experiment [1] is LSD1 (Homo sapiens, UniProt O60341). The experiment is described as follows: LSD1 demethylation assay on nucleosomal substrates (mononucleosomes), Western blotting. Format: biochemical. The arrangement: Full length (1-851aa) and C-terminal deleted (1-427 aa) human LSD1 cDNAs; 6xHis (N); made in house; host or cells: bacteria. Particulars: for stimulation of LSD1 demethylation activity: CoREST deletion mutants. As for the experimental part: Preparation of mononucleosome. Mononucleosome was made according to a standard protocol (Tagami et al., 2004; Utley et al., 1996). Briefly, nuclear pellet from both TSA-treated or non-treated HeLa cells was homogenized for 60 times with type A pestle to obtain oligo-nucleosomes. The oligo-nucleosomes were then digested with micrococcal nuclease (40 units/mL) for 10 mins at 30° C. The nuclease is inactivated by 5 mM EDTA. Digested materials were spun at 14000 rpm for 3 mins. Resulting supernatant was spun again for additional 3 mins at the same speed. Supernatant from the second spin was subject to 10-25% glycerol gradient sedimentation. The monocleosome-containing fractions were identified by examining aliquots of fractions (treated with proteinase K) on DNA agarose gel. An aliquot of TSA-treated or non TSA-treated mononucleosome, a kind gift from Dr. Yoshihiro Nakatani's Lab in Dana Faber Cancer Institute, Harvard Medical School (Tagami et al., 2004), was used here as a control for the quality of mononucleosome made in our lab.
Demethylation assay. LSD1 demethylation activity on free histone or nucleosomal histone was carried out as previously reported (Shi et al., 2004). Briefly, bulk histones or mononucleosomes were incubated with purified His-LSD1 with or without purified His-CoREST, His-CoREST mutants, His-BHC80 and/or GST-HDAC1 in the histone demethylase activity (HDM) assay buffer (50 mM Tris pH8.5, 50 mM KCl, 5 mM MgCl, 0.5% BSA and 5% glycerol) from 10 mins up to 1 hour at 37° C. The demethylase activity of LSD1 under various conditions was evaluated by Western blotting using K4-H3 methylation-specific antibodies.

Experiment [2] relates to SCN2A. Particulars: Rat-1 fibroblast cells, TSA treatment; cited from earlier work.
Experiment [3] concerns LSD1 target genes. The experiment is described as follows: RT-PCR of LSD1 target genes / mRNA in HeLa cells. Format: cell-based, human. Particulars: TSA treatment. From the text: RT-PCR. Total RNA samples were isolated from 2×10^6 cells by Trizol reagent (Sigma). After DNase treatment, the RNA samples were purified by phenol-chloroform extraction and ethanol precipitation. 38 PCR cycles were used for SCN1A, SCN2A, SCN3A and M4 AchR and 28 PCR cycles for GAPDH. Primers used in RT-PCR were as follows: SCN1A up (5′-[…]-3′; SEQ ID NO: 1), down (5′-[…]-3′; SEQ ID NO: 2); SCN2A up (5′-[…]-3′; SEQ ID NO: 3), down (5′-[…]-3′; SEQ ID NO: 4) SCN3A up (5′-[…]-3′; SEQ ID NO: 5), down (5′-[…]-3′; SEQ ID NO: 6); p57^KIP2 up (5′-[…]-3′; SEQ ID NO: 7), down (5′-[…]-3′; SEQ ID NO: 8); GAPDH up (5′-[…]-3′; SEQ ID NO: 9), down (5′-[…]-3′; SEQ ID NO: 10).
(§1) Knockdown LSD, CoREST and Proteasome inhibitor (PI) treatment. Stable cell lines which express mutant GFP-shRNA, CtBP-shRNA, LSD1-shRNA or CoREST-shRNA were generated as previously described (Shi et al., 2003; Sui et al., 2002). To prevent proteasome-mediated protein degradation, the cells were treated with ZL3VS at final concentration 10 μM for 24 hours in culture then harvested. The protein and mRNA levels of the shRNA-knockdown cells with or without PI treatment were estimated by Western blotting and RT-PCR as previously described (Shi et al., 2004).

Experiment [4] deals with LSD1. The experiment is described as follows: LSD1 protein level in knockdown cells (immunostaining, Western blotting). Format: cell-based, human. Particulars: CoREST shRNA treated cells; 10 μM for 24 hours. As for the experimental part:
as §1
In general terms: A western blot detects proteins with antibodies after separation by electrophoresis.

Experiment [5] concerns the target T1, GST-LSD1 (Homo sapiens, UniProt O60341).
T1 construct: made in house; host or cells: bacteria (inferred from 'similar procedure' to the His-tagged proteins)
The experiment is described as follows: GST pulldown of HIS-tagged CoREST and mutants. Format: binding. Conditions: Coomassie Blue staining. As for the experimental part:
To identify domains of CoREST that are involved in physical interactions with LSD1, GST-LSD1 or GST was incubated with bacterially purified, HIS-tagged CoREST and its mutant derivatives. […] This places the putative LSD1-binding domain within the C-terminal functional domain of CoREST, somewhere between aa 293-381 of CoREST. […] We therefore speculate that the SANT2 domain may be involved in mediate binding to the nucleosomal substrate. Taken together, these findings are consistent with the idea that CoREST functions as a bridging protein. The weak stimulatory activity of the N-terminal CoREST (del1, aa 1-293) remains unclear at the present time.
GST and GSTLSD1 plamsids were kind gifts from Dr. Tadashi Baba's Lab in Japan (Iwase et al., 2004). Expression and purification of GST and GSTLSD1 proteins were done using similar procedure as outlined for purification of his-tagged recombinant proteins. For GST-bead pulldown experiment, 2 μg of each purified his-tagged wt or del CoREST proteins were incubated with 5 μg of bound GST and GSTLSD1 proteins at 4° C. for 4 hrs in a binding buffer (50 mM Tris, pH 8.0, 300 mM NaCl, 1 mM DTT, 0.5 mM EDTA and 0.1% NP-40). The beads were washed 3 times in the binding buffer, resuspended in 2×SDS protein sample buffer, boiled for 5 mins and loaded onto 15% SDS PAGE gel. The gel was then stained with Coomassie Blue.

Experiment [6] concerns the target T2, HIS-LSD1 (Homo sapiens, UniProt O60341). The experiment is described as follows: Demethylase assay on histone H3 peptides, Western blotting with methyl-specific antibodies. Format: biochemical. Also on record: Full length (1-851aa) and C-terminal deleted (1-427 aa) human LSD1 cDNAs; 6xHis (N); made in house; host or cells: bacteria (IPTG induction). Conditions: 1 μg LSD1, 1 nmole peptide; modification-specific antibody. An excerpt: LSD1 is a flavin-containing protein based on its ability to bind FAD ((Humphrey et al., 2001), and data not shown). Its sequence homology with amine oxidases predicts that LSD1 may catalyze oxidation reactions of biogenic amines including monoamine, polyamines or N-methylated protein substrates (such as histones) (Bannister et al., 2002). Amine oxidation catalyzed by flavin-containing amine oxidase is characterized by oxidative cleavage of the a-carbon bond of the substrate to form an imine intermiediate, which, in turn, is hydrolyzed to form an aldehyde and amine via a non-enzymatic process. In a complete catalytic cycle, the cofactor FAD is reduced to FADH2 and then is likely to be re-oxidized by oxygen to produce hydrogen peroxide (Binda et al., 2002). […] The HIS-LSD1 proteins were incubated with histone H3 peptides carrying dimethylated K4 (diMeK4H3) or K9 (diMeK9H3) and the methylation status was determined using a diMeK4H3 or diMeK9H3 specific antibody, respectively. […]
Demethylase assay. […] The reaction mixture was analyzed by SDS-PAGE/Western blotting using methyl-specific antibodies, or by formaldehyde formation assay to examine the removal and conversion of the methyl group to formaldehyde, or by mass spectrometry to identify the demethylated peptide.

Experiment [7] addresses T2, HIS-LSD1. The experiment is described as follows: Demethylation-FDH coupled spectrophotometric assay (formaldehyde formation). Format: biochemical. The arrangement: Full length (1-851aa) and C-terminal deleted (1-427 aa) human LSD1 cDNAs; 6xHis (N); made in house. Particulars: for formaldehyde production (absorbance at OD 340 nm): peptide used as substrate of HIS-LSD1. An excerpt:
We used a third independent method to investigate the possibility that LSD1 is a histone demethylase. […] To determine whether formaldehyde was produced in LSD1-mediated enzymatic reactions, we first used the formaldehyde dehydrogenase (FDH) assay to detect the presence of formaldehyde (Lizcano et al., 2000). This assay employs formaldehyde dehydrogenase to convert formaldehyde to formic acid using NAD^+ as the electron acceptor, whose reduction to NADH can be spectrophotometrically measured at OD 340 nm. Thus, when the demethylation reaction is coupled with the FDH assay, the enzymatic activity of LSD1 and reaction kinetics can be determined by measuring the production of NADH. A standard curve was first generated using purified FDH (EC 1.2.1.46), NAD^+ and different concentrations of formaldehyde ranging from 1 μM to 10 mM, within which a linear relationship was found between the production of NADH and the range of formaldehyde used in the assay. Subsequently, the coupled demethylation-FDH assays were carried out within this linear range and were initiated with the addition of the diMeK4H3 substrates. The continuous production of the formaldehyde as the demethylation proceeded was monitored by OD measurement at 340 nm at different time points. […] We next used the demethylation-FDH coupled spectrophotometric assay as another independent means to investigate the substrate specificity of LSD1.
Formaldehyde Dehydrogenase (FDH) assay. Formaldehyde formation was continuously monitored by a coupled spectrophotometric assay (Lizcano et al., 2000) using formaldehyde dehydrogenase (FDH). […] The absorbance at 340 nm (ε340=6.22 mM^−1 cm^−1 for NADH) was measured at each time point in a 0.5 min interval using Beckman DU640 spectrophotometer. The OD 340 nm absorbance at the moment of the substrate addition was considered as 0 and this was used as the 0 min time point. Over a 10 min period, a kinetic software program automatically recorded the absorbance at each time point. The data were analyzed using the Excel program. […]

Consider `CC(/C=C/C(=O)NO)=C\[C@@H](C)C(=O)c1ccc(N(C)C)cc1` [TSA, Trichostatin A], for which, in experiment [1] (hyperacetylated nucleosomes isolated from TSA-treated HeLa cells, less susceptible), the “difference in CoREST/LSD1-mediated demethylation, untreated vs TSA-treated nucleosomes” value is recorded as “approximately 4 fold”. For the same compound, in experiment [2], the SCN2A expression result was “unaffected”. For the same compound, the “expression of LSD1 target genes SCNA2 and SCNA3” value in experiment [3] was “de-repression”.
Take `CC(C)C[C@@H](/C=C/S(C)(=O)=O)NC(=O)[C@H](CC(C)C)NC(=O)[C@H](CC(C)C)NC(=O)OCc1ccccc1` [ZL3VS]: in experiment [4], the “LSD1 steady state level” value is “restored the LSD1 steady state level”.
Turning to “HDAC1: Bacterially purified histone deacetylase 1”, in experiment [1] (bacterially purified protein added to recombinant LSD1), the “effect of added protein on ability of recombinant LSD1 to demethylate nucleosomal substrates” value is listed as “no effect”.
As for “del 3: CoREST deletion mutant aa 105-381”, in experiment [5], the “binding to LSD1” value was “bound LSD1”. Besides, the “stimulation of LSD1 demethylation activity” value in experiment [1] is “fail to stimulate its activity”.
The like results for “del 5: CoREST deletion mutant aa 293-381” were, in that order, “bound LSD1” and “fail to stimulate its activity”.
Consider “diMeK4H3: Synthetic histone H3 peptide (1-21 aa) carrying dimethylated K4”, for which, in experiment [6], the “dimethylation level of H3 peptide after incubation with LSD1” value was “effectively reduced dimethylation level at K4”. Besides, the “formaldehyde production (absorbance at OD 340 nm)” value in experiment [7] is reported as “robust increase”. Also, in experiment [7] (purified HIS-LSD1, Lineweaver-Burk transformation, read-out: apparent Km for the diMeK4H3 substrates), the Km is approximately 30 µM.
For the compound “diMeK9H3: Synthetic histone H3 peptide (1-21aa) carrying dimethylated K9”, the “dimethylation level of H3 peptide after incubation with LSD1” value in experiment [6] was “failed to reduce the dimethylation level at K9”. Also, the “formaldehyde production (absorbance at OD 340 nm)” value in experiment [7] is “not”.

What is called Km is the substrate concentration at which the rate is half of its maximum.
